Consider one protein from publication PMC8629394, “Anaerobic peroxisomes in Entamoeba histolytica metabolize myo-inositol” (PLoS Pathogens, 2021).

Substrate in data set [1]: O[C@H]1[C@H](O)[C@@H](O)[C@H](O)[C@@H](O)[C@H]1O
As to the kind of experiment: purified protein. The class given is biochemical, Entamoeba histolytica. The note with it: 1 mM NAD+, 10 mM sodium pyrophosphate pH 9, room temperature; pH 9.0.

Substrate in data set [2]: NC(=O)c1ccc[n+]([C@@H]2O[C@H](COP(=O)(O)OP(=O)(O)OC[C@H]3O[C@@H](n4cnc5c(N)ncnc54)[C@H](O)[C@@H]3O)[C@@H](O)[C@H]2O)c1
As to the kind of experiment: purified protein. The class given is biochemical, Entamoeba histolytica. The note with it: 12.5 mM myo-inositol, 10 mM sodium pyrophosphate pH 9, room temperature; pH 9.0; varied: cofactor.

Substrate in data set [3]: O=C1[C@@H](O)[C@H](O)[C@@H](O)[C@H](O)[C@H]1O
As to the kind of experiment: purified protein. The class given is biochemical, Entamoeba histolytica. The note with it: reverse reaction, NADH as co-substrate (concentration not stated).

Substrate in data set [4]: O[C@H]1[C@H](O)[C@@H](O)[C@H](O)[C@@H](O)[C@@H]1O
As to the kind of experiment: purified protein. Format: biochemical, Entamoeba histolytica. The note with it: 1 mM NAD+, 10 mM sodium pyrophosphate pH 9, room temperature; pH 9.0.

Substrate in data set [5]: NC(=O)c1ccc[n+]([C@@H]2O[C@H](COP(=O)(O)OP(=O)(O)OC[C@H]3O[C@@H](n4cnc5c(N)ncnc54)[C@H](OP(=O)(O)O)[C@@H]3O)[C@@H](O)[C@H]2O)c1
As to the kind of experiment: purified protein. Format: biochemical, Entamoeba histolytica. The note with it: 12.5 mM myo-inositol, 10 mM sodium pyrophosphate pH 9, room temperature; pH 9.0; varied: cofactor.

Substrate in data set [6]: NC(=O)C1=CN([C@@H]2O[C@H](COP(=O)(O)OP(=O)(O)OC[C@H]3O[C@@H](n4cnc5c(N)ncnc54)[C@H](O)[C@@H]3O)[C@@H](O)[C@H]2O)C=CC1
As to the kind of experiment: purified protein. The class given is biochemical, Entamoeba histolytica. The following applies: reverse reaction, keto-2-inositol as presumed co-substrate (concentration not stated); varied: cofactor.

Data set [7] deals with the molecule itself. As to the kind of experiment: SEC-MALS; enzymatically active myo-IDH, 0.5-2 mg/ml, Agilent Biosec-3 column, 0.3 ml/min, 50 mM phosphate buffer pH 7.0, 300 mM NaCl, 15°C; miniDAWN light scattering, refractive index and UV detectors. Background: SEC sorts molecules by how far they enter the pores of the column.

Where “and” joins values, the source holds several entries; their conditions need not be identical. Equal values may be shown once.

B1: recombinant 6xHis-tagged E. histolytica myo-inositol dehydrogenase (myo-IDH) (enzyme, Entamoeba histolytica, UniProt C4LVW1 1-316, looked up)
chain: MQSNKVRICLCGTGRLGSFRASLFIESQDIELVGVVEPFRVCQSVLDRPNIKIFKTVEEINIPIDGIWISTPTKFHLQTIKLASKKVKHIYCEKPIASTPEEVKEAYETCRKNGVSLHCGWMRRRDPGYQSIKEYLVSHNVSIQRAEFHSFDWPLVPPEFLKTLGNIFTDLMCHDFNLIMYYMNNTLPKYVTAVGIDGGAGVWDSATASLEYPNNVVLTIIATRNGNKVYDNSLTVLTSDSHILECGKEPENLTETFMKRHEKNFKKELPFFANIIRNNGTSGDVLSCVNTSILIQAATRSATLGGKRIPLVIPKL
notes: myo-inositol dehydrogenase (myo-IDH, EC 1.1.1.18) of Entamoeba histolytica, gene EHI_125740; theoretical weight 36.4 kDa including the 6x-His tag; the natural protein ends in a PTS1 tripeptide; also called putative inositol dehydrogenase; EHI_125740; source: E. coli BL21 Rosetta, pET42b, purified (Ni-NTA agarose, native conditions, imidazole)
One may read the Km as the concentration of substrate that gives half-maximal velocity. One may read the Vmax as the top rate of the reaction or transport when substrate is in excess. What is called stoichiometry N is a count of units in the complex or per binding partner. For the protein B1, the Michaelis-Menten constant (Km) was 44 ± 4 µM in data set [1]; 38 ± 4 µM in data set [2]; 322 ± 34 µM in data set [3]; 229 ± 20 µM in data set [4]; 1201 ± 532 µM in data set [5]; 9 ± 0 µM in data set [6]. In addition, the maximum rate (Vmax) in data set [1] worked out at 5.45 µmol/min/mg; in data set [2], 1 µmol/min/mg; in data set [3] it was 4.41 µmol/min/mg; in data set [4], 6.2 µmol/min/mg; in data set [5], 0.826 µmol/min/mg; in data set [6], 1.64 µmol/min/mg. Moreover, in data set [7], the “stoichiometry N” value was 2 and 3.
